In this experiment the target is BB2. The experiment can be described thus: SEC-MALS. A general note: SEC sorts molecules by how far they enter the pores of the column.

These results are taken from PMC6275156.

As usually defined, the stoichiometry N is a count of units in the complex or per binding partner. BB2 registered a stoichiometry N of 4.
